Results published in PMC3977997, “Engineering the Expression and Characterization of Two Novel Laccase Isoenzymes from Coprinus comatus in Pichia pastoris by Fusing an Additional Ten Amino Acids Tag at N-Terminus” (PLoS ONE, 2014).

Assays:
Test in all cases: purified protein
Conditions in all cases: air oxygen
purified protein [1] = substrate: CCn1c(=NN=c2sc3cc(S(=O)(=O)O)ccc3n2CC)sc2cc(S(=O)(=O)O)ccc21; assay type: biochemical, Coprinus comatus
purified protein [2] = substrate: Cc1cccc(C)c1O; assay type: biochemical, Coprinus comatus
purified protein [3] = substrate: COc1cc(C=NN=Cc2cc(OC)c(O)c(OC)c2)cc(OC)c1O; assay type: biochemical, Coprinus comatus
purified protein [4] = substrate: COc1ccccc1O
[5] = pH 3.0, optimal temperature 60 °C
[6] = pH 5.5 (optimum elsewhere given as 6.0), optimal temperature 65 °C
[7] = pH 6.0 (optimum elsewhere given as 5.5), optimal temperature 65 °C
[8] = pH 6.0, optimal temperature 60 °C, 60.0 °C
[9] = pH 3.0, optimal temperature 65 °C
[10] = pH 5.5 (optimum elsewhere given as 5.0), optimal temperature 60 °C
[11] = pH 5.0 (optimum elsewhere given as 5.5), optimal temperature 60 °C
[12] = pH 5.0, optimal temperature 50 °C, 50.0 °C

B1: Lac4 (Coprinus comatus) (protein)
chain: LSVGPRATLTLTNDVVAPDGFERSAIVVNGGHPGPLIQANKGDAYTINVVNRLTDSTMQRVSSIHWHGLSQRGTNWADGGSGVNQCPISPNHSFEYQFSGRKDQAGTFWYHSHYSIQYCDGLRGPLVIYDPNDPFKNLYDVDDESTVITLTDWYHTPFPSVTGPPTSDSTLINGKGRYPGGPNVDLSVINVERGKRYRFRLVALTCENSHLFGIDGHQLLVIETGGESTVPTLVDKITLLAGQRYSFVLDANQAVDNYWIRGLPRSGVPSLKAGYEGGLNSAILRYQGAPITEPQTTDNENAALLDEAQLVPTRNPFAPGRPTSGGADFNVTVNFELDLTTGSPHFKLNGKIYQPPTVPILLQIISGARKAEELLPEGNIYFVPRNKVVEVTVPGGIPGAPHPMHLHGHHFSVVKSAGKHNQVNYLTPVRRDTTASPVEVDDNTTIRFTTDSPGPWIFHCHFNKHQSIGMAVVFVADIDEVAEKNPTPDAWNDLCPIYQSLSESETVVEIVPMVKH
notes: mature form (532-aa precursor, 16-aa putative signal peptide removed); pPICZalphaB-10AALac4; secreted from Pichia pastoris KM71H; glycosylated, about 70 kDa (52 kDa after endoH)
Q: With B1 as the protein, how does the Km (purified protein [1]; [5]) read?
A: 205 µM

Q: What about the kcat (purified protein [1]; [5]) of the same protein?
A: 1.47 s⁻¹

Q: And the kcat/Km (purified protein [1]; [5])?
A: 7170 M⁻¹ s⁻¹

Q: What about the Km (purified protein [2]; [6]) of the same protein?
A: 7131 µM

Q: What about the kcat (purified protein [2]; [6]) of the same protein?
A: 1.47 s⁻¹

Q: What about the kcat/Km (purified protein [2]; [6]) of the same protein?
A: 206 M⁻¹ s⁻¹

Q: And the Km (purified protein [3]; [7])?
A: 204 µM

Q: What about the kcat (purified protein [3]; [7]) of the same protein?
A: 44.7 s⁻¹

Q: And the kcat/Km (purified protein [3]; [7])?
A: 220000 M⁻¹ s⁻¹

Q: What about the Km (purified protein [4]; [8]) of the same protein?
A: 455 µM

Q: And the kcat (purified protein [4]; [8])?
A: 0.196 s⁻¹

Q: And the kcat/Km (purified protein [4]; [8])?
A: 503 M⁻¹ s⁻¹

B2: Lac3 (Coprinus comatus) (protein)
chain: SVLIPHSTLTLTNQLIAPDGFQRSAIVVNGEHPGPLIQATKGDGFMVNVVNQLTDPTMQRAASVHWHGLSQRGTNWADGATGVNQCPISPNHSFEYTFTGGDSQAGTFWYHSHYFLQYCDGLRGPLVIYDPEDPWKNLYDVDDESTVLTLADWYHTPFPSIPGFPLPESTLINGKGRYPDGPNVDLSIVNVEKGKRYRFRLVSLACETSYLFGIDGHQLQVIETDGQNTVPVVVDKLRIFAGQRYSFVLDANQNIDNYWVRSLPANGMPKLVAGYEGGINSAILRYRGAPISDPQTNDNQNLILLEEAKLVPAQDPFPPGNPTAGGADFNVTLNFVLDVDLASGEPQFKLNDKVYRPPSVPILLKILSGARRPEELLPEGNLFSVPRDKVIEVTVPGGIAAGPHPMHLHGHTFSVVKSAGKNNQPNYLTPVRRDVTATSQEVDDYITIRFTTDNPGPWLLHCHLNKHHESGMVVVFVADVDSVAEENPVPDAWNDLCPIYDALSDAEKEVKIVSSLPMPV
notes: mature form (547-aa precursor, 28-aa putative signal peptide removed); pPICZalphaB-10AALac3; secreted from Pichia pastoris KM71H; glycosylated, about 75 kDa (55 kDa after endoH)
Q: With B2 as the protein, how does the Km (purified protein [1]; [9]) read?
A: 136 µM

Q: And the kcat (purified protein [1]; [9])?
A: 3.48 s⁻¹

Q: And the kcat/Km (purified protein [1]; [9])?
A: 25600 M⁻¹ s⁻¹

Q: And the Km (purified protein [2]; [10])?
A: 1374 µM

Q: What about the kcat (purified protein [2]; [10]) of the same protein?
A: 0.307 s⁻¹

Q: And the kcat/Km (purified protein [2]; [10])?
A: 223 M⁻¹ s⁻¹

Q: What about the Km (purified protein [3]; [11]) of the same protein?
A: 87 µM

Q: What about the kcat (purified protein [3]; [11]) of the same protein?
A: 32 s⁻¹

Q: And the kcat/Km (purified protein [3]; [11])?
A: 367000 M⁻¹ s⁻¹

Q: And the Km (purified protein [4]; [12])?
A: 1114 µM

Q: What about the kcat (purified protein [4]; [12]) of the same protein?
A: 0.418 s⁻¹

Q: What about the kcat/Km (purified protein [4]; [12]) of the same protein?
A: 375 M⁻¹ s⁻¹
